{"source": "patent EP0651797B1", "key": {"[1]": {"molecular_target": "CD3 on cells of tonsillar B cell preparations (human) (UniProt P07766)", "test": "FACS staining of highly enriched tonsillar B cells, Donor 1"}, "[2]": {"molecular_target": "CD3 on cells of tonsillar B cell preparations (human) (UniProt P07766)", "test": "FACS staining of highly enriched tonsillar B cells"}, "[3]": {"molecular_target": "CD3 on cells of tonsillar B cell preparations (human) (UniProt P07766)", "test": "FACS staining of highly enriched tonsillar B cells, Donor 2"}, "[4]": {"molecular_target": "human CD40 on cells (human) (UniProt P25942)", "sequence (P25942 21-277)": "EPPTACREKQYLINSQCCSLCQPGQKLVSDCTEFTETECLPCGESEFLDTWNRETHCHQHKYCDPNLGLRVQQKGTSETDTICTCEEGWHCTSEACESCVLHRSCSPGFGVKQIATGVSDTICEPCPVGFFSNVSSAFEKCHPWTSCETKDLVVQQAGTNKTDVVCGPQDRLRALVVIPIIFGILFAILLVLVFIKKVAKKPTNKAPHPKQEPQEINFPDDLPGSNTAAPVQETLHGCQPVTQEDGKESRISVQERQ", "test": "FACS staining of highly enriched tonsillar B cells"}, "[5]": {"molecular_target": "LeuM3 on cells of tonsillar B cell preparations (human) (UniProt P08571)", "sequence (P08571 20-345)": "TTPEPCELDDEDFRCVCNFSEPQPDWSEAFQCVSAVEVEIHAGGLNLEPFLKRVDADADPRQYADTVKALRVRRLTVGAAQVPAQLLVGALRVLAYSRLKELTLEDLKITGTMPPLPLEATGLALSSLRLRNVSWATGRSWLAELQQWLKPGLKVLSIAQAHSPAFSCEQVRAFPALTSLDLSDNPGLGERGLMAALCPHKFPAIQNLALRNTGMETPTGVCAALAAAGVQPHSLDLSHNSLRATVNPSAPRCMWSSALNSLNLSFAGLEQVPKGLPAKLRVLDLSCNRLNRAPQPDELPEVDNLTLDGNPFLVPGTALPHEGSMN", "test": "FACS staining of highly enriched tonsillar B cells"}, "[6]": {"molecular_target": "human B7 antigen on cells (human) (UniProt P33681)", "sequence (P33681 35-288)": "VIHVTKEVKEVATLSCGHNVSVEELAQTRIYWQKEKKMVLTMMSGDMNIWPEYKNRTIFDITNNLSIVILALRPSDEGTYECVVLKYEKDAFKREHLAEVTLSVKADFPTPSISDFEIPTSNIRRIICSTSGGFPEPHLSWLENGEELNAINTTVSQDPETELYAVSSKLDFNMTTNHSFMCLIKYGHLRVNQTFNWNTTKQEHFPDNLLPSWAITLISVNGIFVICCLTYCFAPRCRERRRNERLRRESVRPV", "test": "FACS staining of highly enriched tonsillar B cells, Donor 1"}, "[7]": {"molecular_target": "human B7 antigen on cells (human) (UniProt P33681)", "test": "cell-based or functional assay"}, "[8]": {"molecular_target": "human B7 antigen on cells (human) (UniProt P33681)", "test": "FACS of tonsillar B cells cultured for 5 days with immobilized anti-(IgM) antibodies and IL-2"}, "[9]": {"molecular_target": "human B7 antigen on cells (human) (UniProt P33681)", "test": "FACS staining of highly enriched tonsillar B cells, Donor 2"}}}
{"substance": "anti-(CD3) monoclonal antibody OKT3", "values": [{"measurement": "% of Positive Cells", "setting": "[1]", "result": 8, "unit": "%"}, {"measurement": "% of Positive Cells", "setting": "[2]", "result": 2.1, "unit": "%"}, {"measurement": "% of Positive Cells", "setting": "[3]", "result": 2.1, "unit": "%"}]}
{"substance": "anti-(CD40) monoclonal antibody G28.5", "values": [{"measurement": "% of Positive Cells", "setting": "[4]", "result": 92.1, "unit": "%"}]}
{"substance": "anti-(LeuM3) monoclonal antibody", "values": [{"measurement": "% of Positive Cells", "setting": "[5]", "result": 2.5, "unit": "%"}]}
{"substance": "anti-B7 monoclonal antibody B7-24", "values": [{"measurement": "% of Positive Cells", "setting": "[6]", "result": 12.6, "unit": "%"}, {"measurement": "T-cell proliferation in a secondary MLC; B7-24 0.025 µg/ml, CsA 3 x 10^-7 M (CPM (by the footnote))", "setting": "[7]", "result": 6}, {"measurement": "T-cell proliferation in a secondary MLC; B7-24 0.025 µg/ml, CsA 6 x 10^-7 M (CPM (by the footnote))", "setting": "[7]", "result": 6}, {"measurement": "T-cell proliferation in a secondary MLC; B7-24 0.025 µg/ml, CsA 10^-7 M (CPM (by the footnote))", "setting": "[7]", "result": 6}, {"measurement": "T-cell proliferation in a secondary MLC; B7-24 0.025 µg/ml, no CsA (CPM (by the footnote))", "setting": "[7]", "result": 47}, {"measurement": "T-cell proliferation in a secondary MLC; B7-24 0.25 µg/ml, CsA 3 x 10^-7 M (CPM (by the footnote))", "setting": "[7]", "result": 2}, {"measurement": "T-cell proliferation in a secondary MLC; B7-24 0.25 µg/ml, CsA 6 x 10^-7 M (CPM (by the footnote))", "setting": "[7]", "result": 3}, {"measurement": "T-cell proliferation in a secondary MLC; B7-24 0.25 µg/ml, CsA 10^-7 M (CPM (by the footnote))", "setting": "[7]", "result": 3}, {"measurement": "T-cell proliferation in a secondary MLC; B7-24 0.25 µg/ml, no CsA (CPM (by the footnote))", "setting": "[7]", "result": 33}, {"measurement": "T-cell proliferation in a secondary MLC; B7-24 2.5 µg/ml, CsA 3 x 10^-7 M (CPM (by the footnote))", "setting": "[7]", "result": 3}, {"measurement": "T-cell proliferation in a secondary MLC; B7-24 2.5 µg/ml, CsA 6 x 10^-7 M (CPM (by the footnote))", "setting": "[7]", "result": 3}, {"measurement": "T-cell proliferation in a secondary MLC; B7-24 2.5 µg/ml, CsA 10^-7 M (CPM (by the footnote))", "setting": "[7]", "result": 3}, {"measurement": "T-cell proliferation in a secondary MLC; B7-24 2.5 µg/ml, no CsA (CPM (by the footnote))", "setting": "[7]", "result": 40}, {"measurement": "T-cell proliferation in secondary MLC; B7-24 0.025 µg/ml, CsA 3 x 10^-6M", "setting": "[7]", "result": 939, "unit": "CPM"}, {"measurement": "T-cell proliferation in secondary MLC; B7-24 0.025 µg/ml, CsA 3 x 10^-7M", "setting": "[7]", "result": 1570, "unit": "CPM"}, {"measurement": "T-cell proliferation in secondary MLC; B7-24 0.025 µg/ml, CsA 6 x 10^-6M", "setting": "[7]", "result": 897, "unit": "CPM"}, {"measurement": "T-cell proliferation in secondary MLC; B7-24 0.025 µg/ml, CsA 6 x 10^-7M", "setting": "[7]", "result": 1590, "unit": "CPM"}, {"measurement": "T-cell proliferation in secondary MLC; B7-24 0.025 µg/ml, CsA 10^-7M", "setting": "[7]", "result": 2820, "unit": "CPM"}, {"measurement": "T-cell proliferation in secondary MLC; B7-24 0.025 µg/ml, no CsA", "setting": "[7]", "result": 29400, "unit": "CPM"}, {"measurement": "T-cell proliferation in secondary MLC; B7-24 0.25 µg/ml, CsA 3 x 10^-6M", "setting": "[7]", "result": 545, "unit": "CPM"}, {"measurement": "T-cell proliferation in secondary MLC; B7-24 0.25 µg/ml, CsA 3 x 10^-7M", "setting": "[7]", "result": 559, "unit": "CPM"}, {"measurement": "T-cell proliferation in secondary MLC; B7-24 0.25 µg/ml, CsA 6 x 10^-6M", "setting": "[7]", "result": 553, "unit": "CPM"}, {"measurement": "T-cell proliferation in secondary MLC; B7-24 0.25 µg/ml, CsA 6 x 10^-7M", "setting": "[7]", "result": 788, "unit": "CPM"}, {"measurement": "T-cell proliferation in secondary MLC; B7-24 0.25 µg/ml, CsA 10^-6M", "setting": "[7]", "result": 601, "unit": "CPM"}, {"measurement": "T-cell proliferation in secondary MLC; B7-24 0.25 µg/ml, CsA 10^-7M", "setting": "[7]", "result": 882, "unit": "CPM"}, {"measurement": "T-cell proliferation in secondary MLC; B7-24 0.25 µg/ml, no CsA", "setting": "[7]", "result": 20800, "unit": "CPM"}, {"measurement": "T-cell proliferation in secondary MLC; B7-24 2.5 µg/ml, CsA 3 x 10^-6M", "setting": "[7]", "result": 609, "unit": "CPM"}, {"measurement": "T-cell proliferation in secondary MLC; B7-24 2.5 µg/ml, CsA 3 x 10^-7M", "setting": "[7]", "result": 697, "unit": "CPM"}, {"measurement": "T-cell proliferation in secondary MLC; B7-24 2.5 µg/ml, CsA 6 x 10^-6M", "setting": "[7]", "result": 971, "unit": "CPM"}, {"measurement": "T-cell proliferation in secondary MLC; B7-24 2.5 µg/ml, CsA 6 x 10^-7M", "setting": "[7]", "result": 790, "unit": "CPM"}, {"measurement": "T-cell proliferation in secondary MLC; B7-24 2.5 µg/ml, CsA 10^-6M", "setting": "[7]", "result": 601, "unit": "CPM"}, {"measurement": "T-cell proliferation in secondary MLC; B7-24 2.5 µg/ml, CsA 10^-7M", "setting": "[7]", "result": 1160, "unit": "CPM"}, {"measurement": "T-cell proliferation in secondary MLC; B7-24 2.5 µg/ml, no CsA", "setting": "[7]", "result": 25200, "unit": "CPM"}, {"measurement": "percentage of cells positive", "setting": "[8]", "result": 25, "unit": "percent"}, {"measurement": "% of Positive Cells", "setting": "[9]", "result": 16.8, "unit": "%"}]}
